Measured values reported in publication doi:10.1101/2020.01.29.926220v1.

What was measured:
Experiment in all cases: spectrophotometric hydrolysis, initial rates, Hanes-Woolf
Assay type in all cases: biochemical, Yersinia mollaretii
Details in all cases: 50 mM MES pH 6.0, 30°C
[1] = system: C[C@@H](O)[C@H]1C(=O)N2C(C(=O)O)=C(S[C@@H]3CN[C@H](C(=O)N(C)C)C3)[C@H](C)[C@H]12
[2] = system: C[C@@H](O)[C@H]1C(=O)N2C(C(=O)O)=C(SCCN=CN)C[C@H]12
[3] = system: C[C@@H](O)[C@H]1C(=O)N2C(C(=O)O)=C(S[C@@H]3CN[C@H](C(=O)Nc4cccc(C(=O)O)c4)C3)[C@H](C)[C@H]12
[4] = system: C[C@@H](O)[C@H]1C(=O)N2C(C(=O)O)=C(S[C@@H]3CN[C@H](CNS(N)(=O)=O)C3)[C@H](C)[C@H]12
[5] = system: C[C@@H](O)[C@H]1C(=O)N2C(C(=O)[O-])=C(SC3Cn4cnc[n+]4C3)[C@H](C)[C@H]12

**Q.** With YEM-1 (Yersinia mollaretii ATCC 43969) as the substance, how does the kcat [1] read?
**A.** >400 s⁻¹

**Q.** What about the Km [2] of the same substance?
**A.** 160 µM

**Q.** What about the kcat [2] of the same substance?
**A.** 480 s⁻¹

**Q.** And the kcat [3]?
**A.** >400 s⁻¹

**Q.** And the kcat [4]?
**A.** >100 s⁻¹

**Q.** What about the kcat [5] of the same substance?
**A.** >16 s⁻¹
